# Assay results taken from the DeepSol protein solubility set.
# Assay: soluble on expression in E. coli; label from the status in PepcDB or PDB records
row,Sequence,soluble on expression in E. coli
1,MYDWFSEMRKKDPVYYDGNIWQVFSYRYTKEVLNNFSKFSSDLTGYHERLEDLRNGKIRFDIPTRYTMLTSDPPLHDELRSMSADIFSPQKLQTLETFIRETTRSLLDSIDPREDDIVKKLAVPLPIIVISKILGLPIEDKEKFKEWSDLVAFRLGKPGEIFELGKKYLELIGYVKDHLNSGTEVVSRVVNSNLSDIEKLGYIILLLIAGNETTTNLISNSVIDFTRFNLWQRIREENLYLKAIEEALRYSPPVMRTVRKTKERVKLGDQTIEEGEYVRVWIASANRDEEVFHDGEKFIPDRNPNPHLSFGSGIHLCLGAPLARLEARIAIEEFSKRFRHIEILDTEKVPNEVLNGYKRLVVRLKSNE,soluble
2,MSSDMRVHSWSCSYYLDLEKQWVSGKLTLTPHSLKFIVEKTEEVLVGLPLSSIIEIRKESSLFIFGAITVLEKGQTKHWFSSLQPSRNVVFNVIEHFWRELLLSQPGTAANIPSHVTRGQELIGLMANSQKRMEDTAKDLQQQSEQLDSVLKGLEKMESDLDVADRLLTELETPSWWPFGSKFWKMPAEENLKEGVSSTCEPFGKEGVVITVPAIISERAESHSKLGKLTVLVSALEIYDSCSLLLHRFEKEDVDDIKVHSPYEVSIRQRFIGKPDVAYQLISAKMPEVIPILEVQFSSKIELLEDALVLRNKVFASSAERHAASRPKGCTPHRELPTGGQEGEQLQLQKNLPLFSEGEAQELTQILSKMKGLALDTEAELERQDAALDGITVAVDRATLNVDKQNRRMRKLM,not soluble
3,MSPEKYLQDWQTSQTIAESISPLIGKLYRQKGIEVVLFGKTLINATTIDILKTHRVARRYTGSPLSLEHTMPIIQALCEMSISSCRVDVGQLATKYWNEHEDTAALNDFLQTALQGARDADSS,not soluble
4,LRLCQVDRCTADMKEAKLYHRRHKVCEVHAKASSVFLSGLNQRFCQQCSRFHDLQEFDEAKRSCRRRLAGHNERRRKSSGE,soluble
5,MGSDKIHHHHHHMSNQPHKPYGTPEPTYSGNKRSLILAGGGMRVAYQAGAIRALIESGLCFNHADGTSGGTMNLAMLLSGLSPIEMCDRWQTLNVKDFVSFIPLEKYLKAWDLLSMGDADGIIDRVFPHLGIDISKINASEGMQGTFNVCNFTHKTNEVIPHDRLDLDLLVAGISLPIFMPPVQKGDYLYMDSVWIKDVNLMEAVRRGADELWVLWCIGNSSEYQTGIFNQYVHMMELSANGAFFEECDRINEINQRILQGETVYGHTQPIKLHLIKPAYPLPLDPDYYLGNIDGATLVDMGYADAKQYLQTMSPAGLPFQPDVTRMHNNLPGMTFRESMAGAFVLNETDPIQGAAKGKAHNSSLSLQLTINICDLKRFLGDTTFTASIAGNISFANFGEHIPFKRGVFNLFAHDHNPGYKYITYELAFEHGNQDYYLVGKKELHNDPGFDLWQDMTTIYTYLHQGTDNNSPIIGSGILTLDVGDVAKCVSGWRITNAKSLTEKTTLLAEFGSFFWGNIWETYQP,not soluble
6,ANCAVCDSPGDLLDQFFCTTCGQHYHGMCLDIAVTPLKRAGWQCPECKVCQNCKQSGEDSKMLVCDTCDKGYHTFCLQPVMKSVPTNGWKCKNCRICI,soluble
7,MAHHHHHHSLEYNLTTTEVAMENVSASWDEGIGEFFEKAKLEVNGGNISNEDPSAFFSNFSLHVAPVLRNINFKIEKGQLLAIAGSTGAGKTSLLMMIMGELEPSAGKIKHSGRISFSPQVSWIMPGTIKENIVFGVSYDQYRYLSVIKACQLEEDISKFPEKDNTVLGEGGITLSGGQRARISLARAVYKDADLYLLDSPFSYLDLFTEKEIFESCVCKLMANKTRILVTSKVEQLKKADKVLILHEGSCYFYGTFSELEDQRPEFSSHLIGFDHFNAERRNSIITETLRRCSEG,soluble
8,AHHHHHHGSKAVTFPVPWEYLKRIFEGKNVFVKPATLRVEEGMKVIFYASRENQGWHGEAEVERVEYYTSVEEIIKKYRDKLFLTPEELRRYERDRARWDSGRRKRPWMVLVLRNIEKYPRVVKPKKFIVVSGRYVDEKEYEEIRRSTS,not soluble
9,MSLATALVLGYSAFDLGLFSDKDPRLKLIKKAIRKDLEAMAADGVSWLVFTGSLGFEYWVLEVAQEMKTEYGFQLATIFAFETHGENWNEGNQMKLSRFKQVDFVKYAYPRYEHKGQLRDYQQFLLENTTSSYLFYDEENETKLAYFYQKMKNQEDYFIKRLTFDQLNELAENFSENEGHHHHHH,soluble
10,LLKEYKNAWDKYDDKQLKEVFALGDRFKNFISNCKTERECVTELIKTAEKSGYRNIEDILAKGETLKEGDKVYANNRGKGLIMFLIGKEPLYTGFKILGAHIDSPRLDLKQNPLYEDTDLAMLETHYYGGIKKYQWVTLPLAIHGVIVKKDGTIVNVCVGEDDNDPVFGVSDILVHLASEQLEKKASKVIEGEDLNILIGSIPLKDGEEKQKVKHNIMKILNEKYDISEEDFVSAELEIVPAGKARDYGFDRSMVMGYGQDDRICAYTSFEAMLEMKNAKKTCITILVDKEEVGSIGATGMQSKFFENTVADIMSLCGDYDELKLRKALYNSEMLSSDVSAAFDPNYPNVMEKRNSAYLGKGIVFNKYTGSRGKSGCNDANPEYIAELRRILSKESVNWQTAELGKVDQGGGGTIAYILAEYGMQVIDCGVALLNMHAPWEISSKADIYETKNGYSAFLNN,soluble
11,SKEIDISCVKIEQVIGAGEFGEVCSGHLKLPGKREIFVAIKTLKSGYTEKQRRDFLSEASIMGQFDHPNVIHLEGVVTKSTPVMIITEFMENGSLDSFLRQNDGQFTVIQLVGMLRGIAAGMKYLADMNYVHRALAARNILVNSNLVCKVSDFGLSRFLEDDTSDPTYTSALGGKIPIRWTAPEAIQYRKFTSASDVWSYGIVMWEVMSYGERPYWDMTNQDVINAIEQDYRLPPPMDCPSALHQLMLDCWQKDRNHRPKFGQIVNTLDKMIRNPNSLKAMAPLSS,soluble
12,MTVYHFVGIKGTGMSSLAQILHDMKHTVQGSDYEKRFFTQTALEKRNISILPFDKSNVKEGQVIIAGNAFPDTHEEIVAAKELNIPVHRYHHFLGDLMNQYTSVAVTGAHGKTSTTGLLAHVMQGAHPTSYLIGDGTGHGVENSKYFVFEACEYRRHFLSYNPDYAIMTNIDFDHPDYFTDINDVFSAFQEMALQVKKGIIACGDDEELQKIQAKVPVIFYGFGEDNDFQARNIQKRTDGTIFDVFVRNTYYDTFKITGYGNHSVLNALAVIALCHYENVDVEAVKHQLTTFEGVKRRFNEKPMGEQVIIDDYAHHPTEINATIEAARQKHPEREIVAVFQPHTFSRTEKFLDEFAESLSKADQVYLCDIFGSARENKGELTIEDLQKRIDGAELITDTTTDVLKKHKNGVLIFMGAGDIQKFEAAYVKEVQVAEK,not soluble
13,MSDIKHEKKLANMDTPGETTKSFENKLDEEIPDIEESDFINSPPFSDEIFSPEDSKQVEISELSKQAYSLLKGNSITEAINVFKKILELDPTNNYALVGLGDAERKNNKFNEAIKFYKQCLEHHPSNNYALFGLADCYKSMNQFPRAIAIWEEYLKFDDKNITVLTRVADAYRKTKEFEKAEKLYQKVLEKSPKNAYALIGLGHLNYDFKKYREALVYWEKVMESSGELVDIRILTSIGNCYRKMKLFDRGVYYFERALERSPDNFYGLFGLADCYRGLNQQYNSIVYWKKILELDPNNKVILTRIGDAYRSMNDFEKAKESYQKALDIDFDSYAMLGLAILCKLQQKYDQAITTLTHLKDTGDTNYNYRVYLELAQCYIEKKEKQKAIETLIDFQKLGIKNQTVSDLLFELTKNDH,not soluble
14,MGSDKIHHHHHHMERMALHFEILENGKVKCLLCPHECVLDNGQIGLCGVRKNKNGSLVSLNYGEVTAIAMDPIEKKPLFHFNPGEQIFSVGTFGCNFKCGFCQNWEISQAKPETKRVTPEQLVKIAQMNRNSKGIAFTYNEPLVWYEFVLDTSRVAVREGMYCVLVTNGFINEEPLELLFQSVHAMNIDLKGFNRDFYREIGGDLDVVLRNIEKVYNAGIHVELTTLIIPGKNDDKEDLRREFEWIADLDKDIPLHISRYFPNYKYTIPPTPIEELIEIYEMAREYLNFVYLGNVWDERYESTFCPDCGNLVIRRQGYEVEKVGLDEEGKCTKCGRQIATIIG,not soluble
15,METKSLICTACPRGCRLSVKIENENISVSGNKCPKGLSYGKTEAVCPMRILTSTIASSVEGFPRLPVKTSVEVPLKNFSEYMHLIRKLKADSSKMPGDIIVKNFAESGADLIAAGGSLLEHHHHHH,soluble
16,MKKSILFICLLTLASTLAKVQAQEERNHGIIWSSLHGLEYGVKAGFNIGGTSPLPLPQEIRAITGYSPNVCFAIEGNVTKWFDKDKKWGMILGLRLENKGMETKARVKNYGMEIIGDGGEHLAGNWTGKVKTKFKASYFSIPILAAYQLSPRVRLSAGPYVSFMTSGDFNGYVSDGYLRKGDPTGTKVEFKDGNTAPYDFSKDLRSFQWGMQAGAEWKAFKHLTVHADLEWGLNDIFKKEFKTITFNMYPIYLNAGFGYAF,not soluble
17,MSKAVIDTGVFVDYIDRKSPLHDVARNVINSIGQLEVLLPYVTIAEICYVTARVLREAGIEEWLEKSVEFVEWLQRHPAVEVVCSTELDVEAAKVKLRYGLALADCYVLALSKLKNCKAVFRKREKEMPDKVEKDFDVIFLEDYVGGDR,not soluble
18,EVQLQQSGAELVRPGASVKLSCTASGFNIKDDFMHWVKQRPEQGLEWIGRIDPANDNTKYAPKFQDKATIIADTSSNTAYLQLSSLTSEDTAVYYCARREVYSYYSPLDVWGAGTTVTVPSGS,soluble
19,MRIFERYNPSKVAKYVKTLFRGRLYIKGVGAFEFDYGKILLPKKQDKQHLLVMSEVNRQVIRLQAEMGLEHHHHHH,not soluble
20,MSRLLLVWDAPNLDMGLGALLGGRPTTAHRPRFDAVGRWLLAKAGELAHTTGSKVESEATVFANVVPGSADSIRSWVEALRNVGFAVFAKPKLRDDTDVDPDMLAHIRKRFEEGDLAGVIVASADGRNFQETLDELASAGVAITVIGFHEHATWALADDRITFVDLEEIPGVFREPLPRVSLDNLPEEGAWLKPIRPLSALLSKSK,not soluble
21,MVLSCRVVDCGGLKLKENQTLLLLVSTIHNSSEVGKLSIDAEEKRSKEWLEMPCAEGMLSLKLTLWQDLLKGINSVFHGQVRVDVDENWKSGPAKWFYLRSKANEDGEGGEDGGDIGDATVKVTYQIDHILRMQVYKPLLDLLFLAGDVQPLTASLVAVIEALPKVELGPVSRSLVELMAQSDRIRPVLSSLYVNSILKCQDENTLFRGQSLSGKMLFEILTTYGKMYLITTLKPVVDKIYKERKNCEVDPARVAVGASLEKNRNNLLVYFQMLFERVTTSSTNCPHLIKQLLYDLRNVVGTHSSRSGVQRLAVSSFVIMRFFAAAILNPKAFEIRKDQPDLRVSRTLLLLSKLLQRLSNCSVSEGPLSSKEIWLNGVFETVTSEQHKSVMASFLDNISLVGDRSEPQKCTVFKFGNLQQVDRSRLAWKKVLHYKKRYVQLTNTHLIWQKDVQCAPKGTVPLSDIKFVNVDNKNIITIVCETMQLQFEAPGGVEATDWLNAIERQRNRAAHEIAETPGEHFFVDAERHVDKIHTLLYKYRETMIEWRDQLQSNVELDEKTAPELLKASYVVEEERQSHKDSLIATLCSTIDVTDAIQLAHTEYEKENKVSRRIDAIITAKKRQKSFSVK,not soluble
